Assay results published in patent US20250188195A1.

Biological target: cotinine-conjugated anti-HER2 affibody (ZQAA1-Cot)
Assay: ELISA, ZQAA1-Cot (2 ug/mL) captured on coated hHER2-ECD-His, anti-hIgG-Fc-HRP, absorbance at 450 nm

EC50 (read off the curve): 0.06 µg/mL
B1: humanized antibody (hz33B2) specifically binding to cotinine (antibody, V domains shown)
VH: QVQLVQSGAEVKKPGASVKVSCKASGYTFTSYWIQWVRQAPGQGLEWMGEIFPGTGTTYYNEKFKGRVTMTIDTSTSTVYMELSSLRSEDTAVYYCARGGYYYDSRAWFAYWGQGTLVTVSS
VL: QAVVTQEPSLTVSPGGTVTLTCRSSTGTVTTSNYANWVQQKPGQAPRGLIGGTNNRAPWTPARFSGSLLGDKAALTLSGAQPEDEAEYYCALWFSNHWVFGGGTKLTVLG
